In PMC10697951:

What was measured:
Assay in all cases: MST
[1] = tested on: SUV420H1(1-390) K258A (human); conditions: histone H4 K20M; MST: 20 mM HEPES pH 7.5, 50 mM NaCl (listed twice), 50 mM KCl, 1 mg/mL BSA, 0.05% Tween-20, 40 uM SAM, 2 mM DTT, room temperature; EMSA: 25 mM HEPES pH 7.5 …
[2] = tested on: SUV420H1(1-390) R220A (human); conditions: 40 uM SAM; text says NCP H2A, legend H4K20M; histone H4 K20M; MST: 20 mM HEPES pH 7.5, 50 mM NaCl (listed twice), 50 mM KCl, 1 mg/mL BSA, 0.05% Tween-20, 40 uM SAM, 2 mM DTT, room temperature; EMSA: 25 mM HEPES pH 7.5 …
[3] = tested on: SUV420H1(1-390) R257A (human); conditions: histone H4 K20M; MST: 20 mM HEPES pH 7.5, 50 mM NaCl (listed twice), 50 mM KCl, 1 mg/mL BSA, 0.05% Tween-20, 40 uM SAM, 2 mM DTT, room temperature; EMSA: 25 mM HEPES pH 7.5 …
[4] = tested on: SUV420H1(1-390) R286A (human); conditions: histone H4 K20M; MST: 20 mM HEPES pH 7.5, 50 mM NaCl (listed twice), 50 mM KCl, 1 mg/mL BSA, 0.05% Tween-20, 40 uM SAM, 2 mM DTT, room temperature; EMSA: 25 mM HEPES pH 7.5 …
[5] = tested on: SUV420H1(1-390) R352A (human); conditions: 40 uM SAM; text says NCP H2A, legend H4K20M; histone H4 K20M; MST: 20 mM HEPES pH 7.5, 50 mM NaCl (listed twice), 50 mM KCl, 1 mg/mL BSA, 0.05% Tween-20, 40 uM SAM, 2 mM DTT, room temperature; EMSA: 25 mM HEPES pH 7.5 …
[6] = tested on: SUV420H1(1-390) R357A (human); conditions: 40 uM SAM; text says NCP H2A, legend H4K20M; histone H4 K20M; MST: 20 mM HEPES pH 7.5, 50 mM NaCl (listed twice), 50 mM KCl, 1 mg/mL BSA, 0.05% Tween-20, 40 uM SAM, 2 mM DTT, room temperature; EMSA: 25 mM HEPES pH 7.5 …
[7] = tested on: SUV420H1(1-390) R357H (human); conditions: 40 uM SAM; text says NCP H2A, legend H4K20M; histone H4 K20M; MST: 20 mM HEPES pH 7.5, 50 mM NaCl (listed twice), 50 mM KCl, 1 mg/mL BSA, 0.05% Tween-20, 40 uM SAM, 2 mM DTT, room temperature; EMSA: 25 mM HEPES pH 7.5 …
[8] = tested on: SUV420H1(1-390) S255F (human); conditions: histone H4 K20M; MST: 20 mM HEPES pH 7.5, 50 mM NaCl (listed twice), 50 mM KCl, 1 mg/mL BSA, 0.05% Tween-20, 40 uM SAM, 2 mM DTT, room temperature; EMSA: 25 mM HEPES pH 7.5 …
[9] = tested on: SUV420H1(1-390) S283L (human); conditions: histone H4 K20M; MST: 20 mM HEPES pH 7.5, 50 mM NaCl (listed twice), 50 mM KCl, 1 mg/mL BSA, 0.05% Tween-20, 40 uM SAM, 2 mM DTT, room temperature; EMSA: 25 mM HEPES pH 7.5 …
[10] = tested on: SUV420H1(1-390) Y349A (human); conditions: 40 uM SAM; text says NCP H2A, legend H4K20M; histone H4 K20M; MST: 20 mM HEPES pH 7.5, 50 mM NaCl (listed twice), 50 mM KCl, 1 mg/mL BSA, 0.05% Tween-20, 40 uM SAM, 2 mM DTT, room temperature; EMSA: 25 mM HEPES pH 7.5 …

Substance: NCP H2A, H4K20M
- Kd [1]: 112 nM
- Kd [2]: 93 nM
- Kd [3]: 144 nM
- Kd [4]: 323 nM
- Kd [5]: 220 nM
- Kd [6]: 213 nM
- Kd [7]: 83 nM
- Kd [8]: 182 nM
- Kd [9]: 85 nM
- Kd [10]: 108 nM
